Measurements published in PMC3027643.

Target: mISCU/mNFS1/mISD11 complex (mouse) (UniProt Q9D7P6)
Experiment: native MS; ESI native mass spectrometry of the quaternary complexes after gel filtration, 50 mM ammonium acetate; masses of the GST-mFXN and the mFXN-HIS complex compared

Chain of UniProt Q9D7P6 (Q9D7P6 36-168, chain 1 of 3): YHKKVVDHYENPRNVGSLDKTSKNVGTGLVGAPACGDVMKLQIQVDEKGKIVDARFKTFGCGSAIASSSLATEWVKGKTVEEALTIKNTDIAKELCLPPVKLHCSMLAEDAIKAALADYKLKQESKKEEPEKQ
Chain of UniProt Q9D7P6 (Q9Z1J3 18-459, chain 2 of 3, further chain): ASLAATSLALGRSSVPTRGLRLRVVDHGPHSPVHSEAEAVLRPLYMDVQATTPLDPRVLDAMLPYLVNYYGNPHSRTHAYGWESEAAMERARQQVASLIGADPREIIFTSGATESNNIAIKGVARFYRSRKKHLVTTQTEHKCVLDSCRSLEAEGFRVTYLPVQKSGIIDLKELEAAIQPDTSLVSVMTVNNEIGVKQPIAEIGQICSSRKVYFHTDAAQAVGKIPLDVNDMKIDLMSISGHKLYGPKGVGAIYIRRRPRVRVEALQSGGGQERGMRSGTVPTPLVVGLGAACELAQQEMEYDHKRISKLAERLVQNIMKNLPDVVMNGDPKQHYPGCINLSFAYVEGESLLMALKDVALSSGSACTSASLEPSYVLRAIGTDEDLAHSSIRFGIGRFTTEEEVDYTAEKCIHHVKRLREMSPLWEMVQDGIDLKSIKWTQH
Chain of UniProt Q9D7P6 (Q8K215 whole entry, chain 3 of 3, further chain): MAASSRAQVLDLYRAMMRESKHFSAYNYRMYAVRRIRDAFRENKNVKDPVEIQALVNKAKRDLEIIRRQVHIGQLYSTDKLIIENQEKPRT

- stoichiometry N: 2
Substance: mFXN-HIS (natural protein)
